Results from the supplement of paper PMC7877785.
± gives the uncertainty stated by the source.

Test: self-splicing fitness, log relative to wild type (ln ratio); higher = more splicing; Tetrahymena group I intron in knt gene, E. coli kanamycin selection, DiMSum; sequences stand for … in CUCUCU…GGAGGGAAAAGUUAUCAGGCAUGCACCUGGUAGCUAGUCUUUAAACCAAUAGAUUGCAUCGGUUUAAAAGGCAAGACCGUCAAAUUGCGGGAAAGGGGUCAACAGCCGUUCAGUACCAAGUCUCAGGGGAAACUUUGAGAUGGCCUUGCAAAGGGUAUGGUAAUAAGCUGACGGACAUGGUCCUAACCACGCAGCCAAGUCCUAAGUCAACAGAUCUUCUGUUGAUAUGGAUGCAGUUCACAGACUAAAUGUCGGUCGGGGAAGAUGUAUUCUUCUCAUAAGAUAUAGUCGGACCUCUCCUUAAUGGGAGCUAGCGGAUGAAGUGAUGCAACACUGGAGCCGCUGGGAACUAAUUUGUAUGCGAAAGUAUAUUGAUUAGUUUUGGAGUACUCGUGGUCG
In short: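 A randomised library covering all eight P1ex-region intron nucleotides was built with the intron in the knt kanamycin-resistance gene on pET-22b(+) and held in E. coli BL21(DE3). Cells were grown overnight at 37°C or 30°C on LB agar, with or without 25 μg/mL kanamycin, plus 100 μg/mL carbenicillin, 50 μM IPTG and 0.2% rhamnose, and pooled colonies were amplicon-sequenced on an Illumina HiSeq 2500. DiMSum fitness is the error-weighted combination of wild-type-normalised replicate fold changes, kanamycin versus none.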

| Sequence | self-splicing fitness (ln) (30 °C) | self-splicing fitness (ln) (37 °C) |
| --- | --- | --- |
| AGCAAGCAAUAUUACGUUGA | -2.95 ± 0.12 | -1.37 ± 0.1 |
| GGGGAGCAAUAUUACGGGUA | -2.64 ± 0.26 | -2.25 ± 0.34 |
| GGUUAGCAAUAUUACGGGGU | -3.61 ± 0.4 | -0.0656 ± 0.17 |
| AGUUAGCAAUAUUACGUCGU | -2.35 ± 0.14 | -1.05 ± 0.14 |
| AUAGAGCAAUAUUACGAUAG | -3.43 ± 0.34 | -1.62 ± 0.23 |
| CACGAGCAAUAUUACGGGUA | -3.26 ± 0.18 | -2.02 ± 0.16 |
| ACCGAGCAAUAUUACGAUAU | -3.68 ± 0.18 | -1.54 ± 0.14 |
| ACAAAGCAAUAUUACGUGCG | -1.07 ± 0.066 | -0.382 ± 0.076 |
| GUACAGCAAUAUUACGGGCG | -2.46 ± 0.18 | -1.11 ± 0.15 |
| GUAUAGCAAUAUUACGGGCA | -1.34 ± 0.24 | -1.35 ± 0.25 |
| GGGUAGCAAUAUUACGCUGA | -2.05 ± 0.15 | 0.00831 ± 0.17 |
| CACGAGCAAUAUUACGGGCA | -2.84 ± 0.31 |  |
| AACCAGCAAUAUUACGAUCA | -0.638 ± 0.1 | -0.0996 ± 0.11 |
| GGUGAGCAAUAUUACGAGCG | -0.194 ± 0.11 | 0.303 ± 0.14 |
| UGCGAGCAAUAUUACGUAAU | -2.35 ± 0.22 | -1.91 ± 0.24 |
| CGUAAGCAAUAUUACGCUGC |  | -2.3 ± 0.39 |
| AACUAGCAAUAUUACGGUGG | -2.14 ± 0.079 | -0.926 ± 0.086 |
| UGUAAGCAAUAUUACGCGGG | -4.06 ± 0.29 | -0.563 ± 0.15 |
| AACUAGCAAUAUUACGUUUA | -1.98 ± 0.11 | -1.1 ± 0.11 |
| AACUAGCAAUAUUACGGAGA | -2.62 ± 0.23 | -1.35 ± 0.2 |
| CUCGAGCAAUAUUACGUUAG | -3.81 ± 0.21 | -1.37 ± 0.14 |
| AGCGAGCAAUAUUACGUGUC | -3.1 ± 0.24 | -2.85 ± 0.22 |
| AAACAGCAAUAUUACGGCGU | -0.571 ± 0.053 | -0.336 ± 0.063 |
| GGUCAGCAAUAUUACGAUUG | -0.673 ± 0.073 | 0.0247 ± 0.097 |
| CCACAGCAAUAUUACGAGGU | -4.41 ± 0.2 | -2.81 ± 0.16 |

| Sequence | self-splicing fitness (ln) (30 °C) | self-splicing fitness (ln) (37 °C) |
| --- | --- | --- |
| AUUAAGCAAUAUUACGCAAU | -1.74 ± 0.13 | -2.34 ± 0.23 |
| UUUCAGCAAUAUUACGUCGA | -1.11 ± 0.11 | -1.25 ± 0.12 |
| CGAGAGCAAUAUUACGAAGC | -3.7 ± 0.28 | -2.02 ± 0.27 |
| AACUAGCAAUAUUACGAUAA | -1.41 ± 0.099 | -0.94 ± 0.099 |
| ACAAAGCAAUAUUACGAUUA | -1.37 ± 0.11 | -0.593 ± 0.11 |
| GCGAAGCAAUAUUACGCACG | -2.58 ± 0.21 | -3.6 ± 0.35 |
| UGUUAGCAAUAUUACGACCU | -0.58 ± 0.16 | 0.317 ± 0.2 |
| CGUCAGCAAUAUUACGGAUA | -1.02 ± 0.079 | -0.231 ± 0.086 |
| GGAGAGCAAUAUUACGCGUA | -2.02 ± 0.37 | -1.42 ± 0.27 |
| GUGAAGCAAUAUUACGCGAA | -1.56 ± 0.11 | -0.479 ± 0.12 |
| AGGUAGCAAUAUUACGUGCC | -1.99 ± 0.022 | -1.22 ± 0.037 |
| AUUCAGCAAUAUUACGUAUU | -0.474 ± 0.065 | -0.558 ± 0.092 |
| UGGGAGCAAUAUUACGGAUA | -2.61 ± 0.32 | -2.52 ± 0.32 |
| GACAAGCAAUAUUACGCCAC |  | -2.64 ± 0.5 |
| AUCGAGCAAUAUUACGUUGC | -2.95 ± 0.29 | -1.7 ± 0.27 |
| GUGCAGCAAUAUUACGACGG |  | -2.73 ± 0.34 |
| UUACAGCAAUAUUACGGAUC | -4.12 ± 0.34 | -2.26 ± 0.2 |
| UGGGAGCAAUAUUACGGGUU |  | -2.02 ± 0.47 |
| GUCUAGCAAUAUUACGAUUA | -0.177 ± 0.17 | 0.177 ± 0.12 |
| AUGAAGCAAUAUUACGGCCA | 0.439 ± 0.11 | 0.466 ± 0.18 |
| CCUUAGCAAUAUUACGGCCU |  | -0.938 ± 0.34 |
| AUAUAGCAAUAUUACGACAU | 0.126 ± 0.014 | 0.224 ± 0.033 |
| CCGCAGCAAUAUUACGUGAA | -4.45 ± 0.21 | -1.88 ± 0.16 |
| AUGCAGCAAUAUUACGUGCG | -0.943 ± 0.061 | -0.294 ± 0.076 |
| GGCGAGCAAUAUUACGUUAG | -1.94 ± 0.15 | -2.49 ± 0.4 |

| Sequence | self-splicing fitness (ln) (30 °C) | self-splicing fitness (ln) (37 °C) |
| --- | --- | --- |
| CAGGAGCAAUAUUACGCUGG | -1.96 ± 0.26 | -0.934 ± 0.24 |
| AGUGAGCAAUAUUACGUGCA | -2.06 ± 0.14 | -0.509 ± 0.13 |
| ACAUAGCAAUAUUACGUUAA | -3.09 ± 0.19 | -1.36 ± 0.15 |
| GCAGAGCAAUAUUACGCUCA | -1.66 ± 0.15 | -0.832 ± 0.15 |
| UAAUAGCAAUAUUACGCCUC | -2.77 ± 0.35 | -1.53 ± 0.38 |
| UAAUAGCAAUAUUACGUUUC | -2.95 ± 0.45 | -1.35 ± 0.23 |
| UCCAAGCAAUAUUACGGCCU | -2.33 ± 0.29 | -2.6 ± 0.27 |
| CGAGAGCAAUAUUACGCUUC | -2.04 ± 0.37 | -1.61 ± 0.31 |
| GGUAAGCAAUAUUACGCCCC | -3.4 ± 0.45 |  |
| AUCGAGCAAUAUUACGUUUU | -4.86 ± 0.36 | -1.23 ± 0.12 |
| ACAGAGCAAUAUUACGGUCU | -3.77 ± 0.18 | -2.48 ± 0.15 |
| CUGAAGCAAUAUUACGAGCC | -3.13 ± 0.31 |  |
| GCUAAGCAAUAUUACGGCCU | -1.89 ± 0.095 | -0.893 ± 0.11 |
| AGGAAGCAAUAUUACGUCUC | -2.91 ± 0.18 | -1.48 ± 0.21 |
| UAACAGCAAUAUUACGUUGU | -4.18 ± 0.16 | -2.67 ± 0.14 |
| GCCGAGCAAUAUUACGUAAU | -1.28 ± 0.092 | -0.203 ± 0.099 |
| AAAUAGCAAUAUUACGACUC | -0.664 ± 0.17 | -0.335 ± 0.21 |
| ACUGAGCAAUAUUACGUAAA |  | -2.33 ± 0.24 |
| GGCCAGCAAUAUUACGGUAC | -3.7 ± 0.19 | -2.3 ± 0.15 |
| GGAUAGCAAUAUUACGACGC | -0.274 ± 0.11 | 0.262 ± 0.12 |
| UGGUAGCAAUAUUACGAGCC | -2.3 ± 0.32 | -1.91 ± 0.26 |
| AUGCAGCAAUAUUACGUGCC | -1.08 ± 0.11 | -0.869 ± 0.15 |
| CACAAGCAAUAUUACGCAAA | -3.29 ± 0.23 | -2.46 ± 0.28 |
| GUGGAGCAAUAUUACGUUAG | -3.94 ± 0.24 | -2.35 ± 0.2 |
| UCAUAGCAAUAUUACGCAUU | -2.86 ± 0.14 | -3.04 ± 0.22 |

| Sequence | self-splicing fitness (ln) (30 °C) | self-splicing fitness (ln) (37 °C) |
| --- | --- | --- |
| GCAGAGCAAUAUUACGGGUC | -3.78 ± 0.47 | -2.29 ± 0.24 |
| CACUAGCAAUAUUACGGCGG | -0.21 ± 0.079 | -0.0455 ± 0.092 |
| GGAGAGCAAUAUUACGAGCA | -1.17 ± 0.35 | -1.86 ± 0.34 |
| UUCGAGCAAUAUUACGGCCA |  | -0.028 ± 0.31 |
| AGCCAGCAAUAUUACGUCAC |  | -2.15 ± 0.44 |
| UUCCAGCAAUAUUACGUGUC | -2.18 ± 0.086 | -1.48 ± 0.098 |
| GUCUAGCAAUAUUACGCAGU | -1.25 ± 0.13 | 0.0079 ± 0.15 |
| GCCUAGCAAUAUUACGCAAU | -0.932 ± 0.14 | -0.245 ± 0.17 |
| CGUAAGCAAUAUUACGUUAC | -3.56 ± 0.26 | -2.03 ± 0.28 |
| AGUCAGCAAUAUUACGAUCC | 0.284 ± 0.16 | 0.198 ± 0.23 |
| CUUCAGCAAUAUUACGAGUA | -1.21 ± 0.4 |  |
| UUAGAGCAAUAUUACGUUGC | -2.58 ± 0.22 | -1.25 ± 0.33 |
| CAUGAGCAAUAUUACGACAA |  | -1.36 ± 0.33 |
| CUUUAGCAAUAUUACGUUCG | -1.09 ± 0.13 | 0.499 ± 0.17 |
| CUACAGCAAUAUUACGUUCG | -0.275 ± 0.063 | 0.0364 ± 0.083 |
| ACUUAGCAAUAUUACGGAAA | -2.19 ± 0.27 | -2.09 ± 0.26 |
| AUUAAGCAAUAUUACGACGG | -2.32 ± 0.23 | -2.54 ± 0.41 |
| GACUAGCAAUAUUACGACAG | -2.92 ± 0.14 | -2.4 ± 0.2 |
| AGACAGCAAUAUUACGCCAA | -2.35 ± 0.15 | -1.1 ± 0.12 |
| UAUAAGCAAUAUUACGCUUU | -4.08 ± 0.35 | -2.77 ± 0.3 |
| CCCUAGCAAUAUUACGGAAA | -3.33 ± 0.27 | -1.5 ± 0.24 |
| CUACAGCAAUAUUACGGUCU | -4.27 ± 0.19 | -2.13 ± 0.16 |
| AGGCAGCAAUAUUACGAGAA | -3.3 ± 0.41 | -2.09 ± 0.36 |
| UAUGAGCAAUAUUACGGAGA | -2.48 ± 0.28 | -2.34 ± 0.27 |
